For assay [1], the target named is T1, α1B-1α2b human neuronal calcium channel subunit combination (human). Description: Bmax of 125I-ω-CgTx GVIA binding, against α1B-1 alone.
Assay [2] deals with human neuronal calcium channel α1B-1 subunit alone (human). Put plainly: saturation binding of 125I-ω-CgTx GVIA to transfected HEK293 cells.
Assay [3] deals with T1, α1B-1α2b human neuronal calcium channel …. The assay is described as above.

From patent US6528630 come the findings set out here.

The Kd is the concentration at which binding is half-saturated.

B1: 125I-ω-CgTx GVIA, P01522 46-72 (peptide)
peptide: CKSPGSSCSPTSYNCCRSCNPYTKRCY
modifications: not checked
On to B1, for which the fold change of binding capacity in assay [1] turned out to be 3 fold. Further, in assay [2], the Bmax came out at 757 sites/cell and the Kd stood at 31.7 pM. For the same molecule, in assay [3], the Bmax was determined as 2260 sites/cell and the dissociation constant Kd turned out to be 84.6 pM.
